Assay results as given in the DeepSol protein solubility set.

assay: soluble on expression in E. coli; label from the status in PepcDB or PDB records

For “MGSDKIHHHHHHMKFKIHSDITYQVMSPTTFIFNVHALRTESQHILDESLIVTPPIEIEEFSYNSGTSRFVRLKATENTTFSMSYTATVDTQYKVIDQRQELETVPVVDLDGDIIPFLFPSRYCQSDKLQKLAYKEFGKIENVYSKVLAITDWIYNNVEYISGSTNSQTSAFDTITERAGVCRDFAHLGIALCRALSIPARYFTGYAFKLNPPDFHACFEAYIGGNWIIFDATRLVPLNGLVKIATGRDAADAAVASIFGNASSTNMHVECASLDTDFTPFWYDKNSLKGLSFQ”, which “soluble on expression in E. coli” value is on record?
Its value is “not soluble”.

Which “soluble on expression in E. coli” value does the source give for “MGSDKIHHHHHHMKIALGPISYCWEKDKVYTFYEKAAQSQVHSVYLGETVCSRRREVKLADYLAIARQLNAAGKEVILSTMALIEAQSEIGELKRCVDNGEFIIEANDMAAVHYASEAKLPFICGPSINNYNRASLDILHKLGMVRFVMPYELSRDWLTKVIETQPEFDIEVMGHGYMPLAHSARCFTAKHFGLRKDNCDTLCKTHPKGMLAQTQENQPLLRLNGIQTQSAAYVDLISEIPNMKALGVSYFRVSPTALSSIELADELCITLTQQQVPQSKHSSESCNGYWFGEAGFNQVSP” here?
The value was “not soluble”.

For “MGSDKIHHHHHHMKIDDIDAFVAVIRCQSISHAAESLDLTQPAITRRVQNFEQALGVELFDRNTKPLKPTPMGIQVYQKCLAILREMDSLRELVASDTPPSGLLRLGVPQTIGDVVLLDALKQLRGEFPDLRAQVSTGWGSHLIGKIENGELDAAAALFPAGKIFPDNIVGQSIGKMELVVVCAKGSVPKKPGKLADCYEQGWVLNPDGCGFRAGLQRTLTDQGLSMKVNLETFGTELQLGLVADGMGLGLVPRPLLERSAHREQLVVLPLKDFKPVMDLWLFYPRFLGNLQAPVEAFGALVARSLKPLSAAA”, which “soluble on expression in E. coli” value is on record?
The value was “not soluble”.

With “MGSDKIHHHHHHMKIGVFSVLFYDKNFEDMLDYVAESGLDMIEVGTGGNPGDKFCKLDELLENEDKRQAFMKSITDRGLQISGFSCHNNPISPDPIEAKEADETLRKTIRLANLLDVPVVNTFSGIAGSDDTAKKPNWPVTPWPTAYSEIYDYQWNEKLIPYWQDLAEFAKEQDVKIAIELHAGFLVHTPYTMLKLREATNEYIGANLDPSHLWWQGIDPIAAIRILGQANAIHHFHAKDTYINQENVNMYGLTDMQPYGNVATRAWTFRTVGYGHSPYVWADIISQLIINGYDYVLSIEHEDPIMSVEEGFQKACQTLKSVNIYDKPADMWWA” as the sequence, how does the “soluble on expression in E. coli” value read?
The value was “not soluble”.

For “MGSDKIHHHHHHMKIGVFVPIGNNGWLISTHAPQYMPTFELNKAIVQKAEHYHFDFALSMIKLRGFGGKTEFWDHNLESFTLMAGLAAVTSKIQIYATAATLTLPPAIVARMASTIDSISGGRFGVNLVTGWQKPEYDQMGMWPGDDYFASRYDYLTEYVQVLRDLWGTGRSDFKGDYFTMNDCRVSPRPSQPMKVICAGQSDAGMAFSAQHADYNFCFGKGVNTPTAFAPTAARMMQAAEKTGRDVGSYVLFMVIADETDEAARAKWEHYKAGADEEALAWLTEQSQKDTRSGSDTNVRQMADPTSAVNINMGTLVGSYASVARMLDEVASVPGTDGVLLTFDDFLAGIDAFGERIQPLMRCRNHIASVTREVA”, which “soluble on expression in E. coli” value is on record?
Its value is “not soluble”.

With “MGSDKIHHHHHHMKIIHVIASIDPKHGGLQAVAMRLAAAQAGLGLDVNIVSYGDAAIEAQVKEIGRSIPHFENIHWHLLPPAGRLETLFCFRGRRMLKALLKDASFMHIHGVWEPFLLYASKLARAAGVPYCICPAGMLDHWSLGQRSWKKKIALMLCYRRMLNEAAFLHLLNVDEMAAVETLNFQARNLIIPNGVFAEEFDPLPARGHFRQKIALAHGRRYILFLSRLHIKKGIDILASAFAAICETYVDVDLVVAGPPGGAEGHFMHLVKKLNIRHRVFMVGAIYGKAKLEAMVDADCFCLPSRQEGFSMAITEALACGTPVVITDQCHFPEVGSADAGLIVSVDAAEVAKALASMLGNPARARTMGENGRRLVLEKFTWPAIAHATLEGYRLSALEAAAS” as the sequence, how does the “soluble on expression in E. coli” value read?
Its value is “not soluble”.

For “MGSDKIHHHHHHMKILICDDDSSITQSLSLIIKTYFNKKKVNNLDIVTFNDGDSLLSDKSQKDIIFLDIEMPGFDGIYVGNELKKQNDSVIIFIVTSYLEYLDAAMRFHVFRYLSKPIDKQRLFQNLDDALELYYSINQKIAVETKYGVTSVLTCDIVYVEAKGRKVIVHTATADLDSTQTLQFWIEHLPQATFFQSHRSYIVNMAMVTSFDHELIYLCDGQFTAYLTRRKFTEFKRAYLMFMESKR”, which “soluble on expression in E. coli” value is on record?
Its value is “not soluble”.

With “MGSDKIHHHHHHMKILLLNTSDARGGAAVAAMRLMETLQEAGAEVRMLVLNRNTTNPDIMALHSGRCGKTADKYRFLAERLHIYMCNGRDRSRLFHVSTALIGYDVSCHPWVRWADVIHLHWINQGFLSLRGLERLTRCGKSVVWTMHDMWPVTAICHHARECLRYRTECGACPQISSQKEKDLARLVWNRKSRVISLLRPTLIGCSHWLADLARQSALTDGLRIESIPNPIDTNLFAPGSRSDARRIMDLPTDRILLLFGAVQADDPRKGIYELSQAMKRLRERQPDLSKRIALVVFGSLRDEVRSLFPNYKLISIGYIREPSRMAELYRAADLFVIPSLEENLPNTIMEALSVGTPCVAFRVGGIPEMIVSGSTGYLAAFRDPSDLAEGITKTIALQETSPEAVASACRSFVLRHYSREVVSSRMLQLYRELL” as the sequence, how does the “soluble on expression in E. coli” value read?
Its value is “not soluble”.

With “MGSDKIHHHHHHMKILMLCREPRLYSCQRLKQACQDRNIQLDILDPNRMLIKLAVIDAQMQAQLYYQAGEIYDKCRAEPSLLAEYDAVLPRFGVSSTMMGCRVLDYFAAKKVVILNNSTAFRLARDKWSSLQVLAAQHIPIPTSSFAGALFSTAAHISQHRIPLVIKTCSGSQGVGVMLSESKVHSVSLLQTLQQAKVDNLLQDFVVEARGQDIRAFVIGDRVVAAIERNGLENDFRANIHQGGSASVIQLNTAEQQLAVLAAKTIGLDVAGVDLIRSNKGLLVLEVNACPGLDGIEKASKLDIAGLIIDYLLAMKK” as the sequence, how does the “soluble on expression in E. coli” value read?
The value was “not soluble”.

For “MGSDKIHHHHHHMKIQNTEWGYIEWKHTYDENNPKQAMNIYIAVTMPGKKHFNHVHYGQEQMIYILEGEGLYIINGVWKPFYQGMIFYIESGSTHETINTGDREIKELIVSNNVDDVGESEIIDINPNNYLKKTLINYSESTLNLYAAVESIRGQFIDPFKIPLIIYDDSWNIVLKNPYFPLFCFEKCNPMKFPQNCDCMNQKSSNQFVCEYGITIYNIPILYKSNSIGVIRGGYVLLSDLNLDTEHNNLYDIPEGAARSIKRLLKQISKNIINFCSFNDIRKDLQEKEKTIARTYHYGEQLEMNLKVAQDMVTNLRINHHFLFNTLNSMASIALDDGSYDLYSAIIDLSRMFRYTMRSDLRFVELESEILYIKNYLNLQKLRYGDALKVKYLIPEKLYNLSVPFNFIQPIVENAFTHGFRDIDTEKRIEIIARLDSQYAIIEIHNNGTILDGNNIDKIKAGIRSNNGHGLSLIYTKFTSAYGNNFDMDIKSSDNEGTYIMIKIPIENYKEYV”, which “soluble on expression in E. coli” value is on record?
Its value is “not soluble”.

For “MGSDKIHHHHHHMKITNFEQTGLCEIEGILSIENTENIEVSELREILKCANVSFVLEGINRLQSTLICELKASYVQQSQRYVTLKENSFDLPDLRHEDELKAKELLRKAFELYEEMSRLKEGQFKGRPKAENYLYGIPIEDARYILPLACKTNISMAMNGEKLIDFFYLLNDRHYSEIFSDLKKLVLSKLPEKLSLFLSKLKSNYNRKLIENFYKSAFDKISECDNIVLLNSFEDLDLKVGLGAITSTHDKTPSEVMELWGDNATEKAKGVSERVLGYGHESIAEQARTTFGMMCSMVTYHQQIRHRLSENHREALFNIIQDEKREVVVPSTVKESEFYNRFVELTHEFKKFRKYVLKEYGEEKSLNFLLNCDRIKLVISTNARIDCQMLADRICFNAQWEIRELSTKKLEKLRKLSQVLYVKALPSCVFGKCKEGKFTCGKQMIMKNKFA”, which “soluble on expression in E. coli” value is on record?
The value was “not soluble”.

With “MGSDKIHHHHHHMKIVVAKNIGFCFGVERAIRTVEELLDEGKKVVTDGEIVHNKQVMEQLTKKGLKVSSEMTDGEVFVVRAHGIPKDRLEELKKIFPEVVDLTCPIVSQLFKTAQRYAKERKVIVFGKEDHPEMVALRGYAPAIVTKVPFKLEEKKVVFLSQTTSSLEEYKEFVAAMIRMNEFEEAVFLNTICPVTVNREREVEELSKICDLSIVVGGKHSSNTGKLFRIASKHSKTIWIESPDELPADVVKYGTVCVFSGTSTPNSLIENVVRKLKEMEGKRDGTI” as the sequence, how does the “soluble on expression in E. coli” value read?
Its value is “not soluble”.

Which “soluble on expression in E. coli” value does the source give for “MGSDKIHHHHHHMKKEQIIQGPCTIKVLEGEARILGIEIQKNDLLTIPSDKTYTLVYDENTRLETDCKKLLDNLNLRWDEIVEEIINTVGVVLLLGNVDSGKTYLTNLFTNLATSYLKIIDADVGQSTLFLPTFIAELKPMRKTLNLEELGYDTLEFFGDITPSTNPRLHVQKILRLYETTPKERLTVIDTDGWTVGLNSMLHKFELIYTIDPDYIIVFDQKIKDSLPENYRNKAILLKSVNLHKSRSERKANRIAKYERYFKEAKNIKTLSENLLGKQISNILYCAWGEYIQLSDEEPCTDYYIPLNLLKGALLGIIENKKVIGAALLDDLKENEITILSRVNKFTGLVLGYISLNDKFEERRIRFRKCKS” here?
Its value is “not soluble”.

Which “soluble on expression in E. coli” value does the source give for “MGSDKIHHHHHHMKKIAIFLPDLRAGGAEKVALLLSNEFVQKGCAVDVILCTAHGEFLSELDTRINVVDLKSPRLRNAFFPLLRYLKAERPDVLLALMWPLTLLAVTAFKFAKLPGRVVVSDHTTFSQAPLLKKKSTRIFFKLSLPMVYSFANARLAVSEGVANDLATLGNIKRSSITVLHNPVSSDTMRFTKEQNEESWQGFSGKKIVAVGALKWEKDYPTLLKAFALLLKKENAYLSIVGQGTLLSELEAIAEQLGIRKQVNFAGFSTMPSAWMASADLLVLSSSCEGFGNVIVESLDVGTAVVSTDCKSGPREILCDGKYGKLVPVGDVDALAQAMVESLNEQHDMDALKLRAAKFSVDKIAKQYLEVFR” here?
Its value is “not soluble”.

With “MGSDKIHHHHHHMKKLFLVLAVLSLVLYGCLRTPPVVKDMVTTDGSLSDWGSKIKEDAADDSKWGADNELLKAGLLFDGANIYIAGEYVIGGDGNVNVFLVLIDLVGVTGAQTVSYTGLNDGNRNFTNPNGDIDLIVEVNQSNEYKVWRVSQDGSLTDITDQVTAQFGTGSTIAELKIPISEQVNQVKAVFAISGGTGGGNQWVGDFYPNQPDHDSAENGGIPQPAPVVNFVVCDKEGNVSEEINQTSEPEQPTESVIVVDGDLSDFGTPVATSTNPGGGNGANLYRLYVTYDATYLYIGFDTQNSGSWDVAYGIGIDTKPSGYTGDSDAWGRKISFGADYAVDYEIYFWWAGGSGLDSNNFCEWNGLDWNYRSIADAGGTFDYTGDTSSGLQTMEIAIPWSAIGGKQDVALIVWITGGSGSAVDSIPDDDSTIDNADEWNDSDTFTNLYLLQVN” as the sequence, how does the “soluble on expression in E. coli” value read?
Its value is “not soluble”.

With “MGSDKIHHHHHHMKKLLNTLYVTRQETYVHKERDTIVINSAGEKLAQFPALTISNILCFGQVSVSPPMMGYCGENGIGLVFYTEYGRFLARMIGKQTGNVLLRRTQYRLADDPEKANAIARVMVGAKIANARTVLMREIRNHGEHANISRAVEQLGYSLKSCQFSQSVPQTMGIEGDAAATYFSVFNGLIRGSRFQFNGRIRRPATDPVNALLSFIYSLITQECVSALMGVGLDPYVGFLHQDRPGRPSLALDLLEEFRASWADRFVLTLLNRRQLSPQAFVTEASGAVRLTDDTRKQVLVAFQERKQEEVVHPYLQEKVPYGLLPHCQALLLARHLRGDMEFYTPYLIK” as the sequence, how does the “soluble on expression in E. coli” value read?
Its value is “not soluble”.

With “MGSDKIHHHHHHMKKLTVYLATTNPHKVEEIKMIAPEWMEILPSPEKIEVVEDGETFLENSVKKAVVYGKKLKHPVMADDSGLVIYSLGGFPGVMSARFMEEHSYKEKMRTILKMLEGKDRRAAFVCSATFFDPVENTLISVEDRVEGRIANEIRGTGGFGYDPFFIPDGYDKTFGEIPHLKEKISHRSKAFRKLFSVLEKILESENR” as the sequence, how does the “soluble on expression in E. coli” value read?
The value was “soluble”.
